The target in the experiment is T1, GPLD1-mCherry-sfGFP-His (glycosylphosphatidylinositol-specific phospholipase D1) (human, UniProt P80108 24-840).
T1 construct: glycosylphosphatidylinositol-specific phospholipase D1, human, full-length cDNA amplified from HepG2 cells; fusion of about 160 kD; also called GPLD1-RG; GPLD1-RFP-GFP; not shown: mCherry, C-terminal, kept; sfGFP, C-terminal, kept; His, C-terminal, kept
T1 sequence (looked up): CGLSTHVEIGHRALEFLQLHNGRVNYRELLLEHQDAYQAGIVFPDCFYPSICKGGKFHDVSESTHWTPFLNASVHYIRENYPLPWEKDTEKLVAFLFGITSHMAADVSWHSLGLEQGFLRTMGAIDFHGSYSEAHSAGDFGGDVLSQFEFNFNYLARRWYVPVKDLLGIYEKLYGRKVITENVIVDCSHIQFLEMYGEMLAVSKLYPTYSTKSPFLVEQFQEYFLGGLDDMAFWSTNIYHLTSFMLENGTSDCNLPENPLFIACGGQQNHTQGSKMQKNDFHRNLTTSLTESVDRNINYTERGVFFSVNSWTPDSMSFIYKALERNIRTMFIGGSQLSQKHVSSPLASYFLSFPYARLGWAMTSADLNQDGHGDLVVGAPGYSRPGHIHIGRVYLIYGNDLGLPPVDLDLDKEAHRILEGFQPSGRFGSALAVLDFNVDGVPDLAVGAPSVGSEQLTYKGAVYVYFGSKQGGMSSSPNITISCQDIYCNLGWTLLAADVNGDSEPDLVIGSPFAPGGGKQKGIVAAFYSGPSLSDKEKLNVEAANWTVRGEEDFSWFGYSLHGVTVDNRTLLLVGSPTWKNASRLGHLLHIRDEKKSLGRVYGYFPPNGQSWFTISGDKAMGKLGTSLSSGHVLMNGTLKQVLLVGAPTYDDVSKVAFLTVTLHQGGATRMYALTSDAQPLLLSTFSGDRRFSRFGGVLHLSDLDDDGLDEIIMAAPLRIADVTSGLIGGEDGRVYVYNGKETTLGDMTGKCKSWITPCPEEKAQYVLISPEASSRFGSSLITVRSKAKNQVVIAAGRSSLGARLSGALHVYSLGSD
The experiment is described as follows: co-IP; purified GPLD1-RG (40 nM) or clusterin-RG mixed with His-ALFA-SAA1 (500 nM) or ALFA-tagged Ab42 in PBS, 37°C with shaking for 2 h; aggregates removed at 20,000g; ALFA nanobody beads 2 h at 4°C; washed four times with PBS; immunoblot. The note with it: both partners purified.

B1: His-ALFA-SAA1-Full length (human SAA1 19-122 aa) (natural protein, UniProt P0DJI8 19-122, looked up)
chain: RSFFSFLGEAFDGARDMWRAYSDMREANYIGSDKYFHARGNYDAAKRGPGGAWAAEVITDARENIQRFFGHGAEDSLADQAANEWGRSGKDPNHFRPAGLPEKY
notes: The purification of the native full-length form is not described in the methods (only SAA1-N and Ab42 from inclusion bodies); source: E. coli BL21(DE3) pLysS, recombinant, used native; not shown: His, N-terminal, kept; ALFA, N-terminal, kept
Take B1: the binding result is given as “binds”.

B2: His-ALFA-SAA1-N terminus (human SAA1 19-94 aa) (domain or fragment, UniProt P0DJI8 19-94, looked up)
chain: RSFFSFLGEAFDGARDMWRAYSDMREANYIGSDKYFHARGNYDAAKRGPGGAWAAEVITDARENIQRFFGHGAEDS
notes: serum amyloid A1, human, residues 19-94; the N-terminal 76 aa residues, the core amyloidogenic fragment; Prepared in 8 M urea-denatured form for all experiments; aggregates on dilution into PBS; also called His-ALFA-tagged SAA1-N; source: E. coli BL21(DE3) pLysS, purified from inclusion bodies under denaturing conditions (8 M urea, Co-NTA); not shown: His, N-terminal, kept; ALFA, N-terminal, kept
Regarding B2, the binding result is “binds”.

The record behind these values is publication PMC13241479, “GPLD1 is a scavenger carrier mediating lysosomal degradation of extracellular aberrant proteins” (Life Science Alliance, 2026).
